± gives the standard error. For some assays here: Fewer inactive variants are shown than the library holds.
B1: glmS ribozyme (parent)
chain: AUAAAAGCGCCAGAACUACAGAAAUGUAGUUGACGAGGAGGAGGUUUAUCGAAUUUUCGGCGGAUGCCUCCAAA

Columns and labels:
Conditions in all cases: with glucosamine-6-phosphate
[1] = variants of: B1; assay: kcat; higher = faster cleavage; RNA array
Outline: (§1)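 kcat and KM were obtained from weighted Michaelis–Menten fits across concentrations of kobs values. Those came from one- or two-exponential decay fits to per-tile medians normalised to baseline and to non-cleaving reference variants. The variants were barcoded ribozymes transcribed in situ by E. coli RNA polymerase on sequenced MiSeq chips and tracked through a hybridised Cy3 probe at 37 °C, with 40 μM to 10 mM glucosamine-6-phosphate in HEPES/KCl/Mg(OAc)2 buffer flowed in.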

[2] = variants of: B1; assay: KM; higher = weaker cofactor use; RNA array
Outline: as §1

[3] = variants of: B1; assay: self-cleavage kobs at 40 uM GlcN6P; higher = faster cleavage; RNA array
Outline: as §1

[4] = variants of: B1; assay: self-cleavage kobs at 160 uM GlcN6P; higher = faster cleavage; RNA array
Outline: as §1

[5] = variants of: B1; assay: self-cleavage kobs at 640 uM GlcN6P; higher = faster cleavage; RNA array
Outline: as §1

[6] = variants of: B1; assay: self-cleavage kobs at 2500 uM GlcN6P; higher = faster cleavage; RNA array
Outline: as §1

[7] = variants of: B1; assay: self-cleavage kobs at 10000 uM GlcN6P; higher = faster cleavage; RNA array
Outline: as §1

Variant	kcat [1]	KM [2]	self-cleavage kobs at 40 uM GlcN6P [3]	self-cleavage kobs at 160 uM GlcN6P [4]	self-cleavage kobs at 640 uM GlcN6P [5]	self-cleavage kobs at 2500 uM GlcN6P [6]	self-cleavage kobs at 10000 uM GlcN6P [7]
A14G C16A	0.00509 ± 0.0016 s⁻¹	847 ± 380 µM	0.000249 ± 4.2e-05 s⁻¹	0.000745 ± 0.00023 s⁻¹	0.0021 ± 0.00042 s⁻¹	0.00276 ± 0.00082 s⁻¹	0.00789 ± 0.0017 s⁻¹
C10G U54A	< 1e-05 s⁻¹	–	< 1e-05 s⁻¹	–	–	–	–
C50G C61A	0.000122 ± 1.7e-05 s⁻¹	–	9.57e-05 ± 9.4e-06 s⁻¹	0.00018 ± 2.4e-05 s⁻¹	0.000166 ± 1.7e-05 s⁻¹	9.96e-05 ± 1.4e-05 s⁻¹	0.000113 ± 9e-06 s⁻¹
G41A U55A	6.65e-05 ± 1.1e-05 s⁻¹	–	–	4.67e-05 ± 1.4e-05 s⁻¹	6.66e-05 ± 1.1e-05 s⁻¹	5.75e-05 ± 1.2e-05 s⁻¹	–
A33C A53U	0.000206 ± 3.2e-05 s⁻¹	–	–	–	7.53e-05 ± 1.6e-05 s⁻¹	0.000246 ± 5.8e-05 s⁻¹	0.000182 ± 1.9e-05 s⁻¹
C16A A39C U65G	5.91e-05 ± 2.8e-05 s⁻¹	–	–	–	–	8.69e-05 ± 3e-05 s⁻¹	–
G37C U47C	< 1e-05 s⁻¹	–	< 1e-05 s⁻¹	< 1e-05 s⁻¹	–	–	–
A12C G37A	0.00391 ± 0.0011 s⁻¹	2210 ± 860 µM	8.92e-05 ± 1.1e-05 s⁻¹	0.000248 ± 4e-05 s⁻¹	0.000756 ± 0.00011 s⁻¹	0.00182 ± 0.00028 s⁻¹	0.00402 ± 0.00063 s⁻¹
U30A G32A	0.00147 ± 0.00062 s⁻¹	–	–	0.000109 ± 2.5e-05 s⁻¹	0.000192 ± 3.2e-05 s⁻¹	0.000485 ± 9.6e-05 s⁻¹	0.0012 ± 0.00022 s⁻¹
G32U A39U	0.000723 ± 0.00022 s⁻¹	8400 ± 3500 µM	–	3.38e-05 ± 1e-05 s⁻¹	5.81e-05 ± 5.6e-06 s⁻¹	0.000148 ± 1.2e-05 s⁻¹	0.000411 ± 3.1e-05 s⁻¹
C50U A53C	1.18e-05 ± 1.3e-06 s⁻¹	–	–	–	–	–	–
C10A C34U C67G C68G	4.25e-05 ± 6.7e-06 s⁻¹	–	–	4.7e-05 ± 8.5e-06 s⁻¹	–	4.25e-05 ± 9.3e-06 s⁻¹	–
C11G G59A	0.000401 ± 1.7e-05 s⁻¹	8670 ± 560 µM	–	–	2.81e-05 ± 1e-05 s⁻¹	8.92e-05 ± 1.8e-05 s⁻¹	0.000215 ± 3.6e-05 s⁻¹
G35C C70A	< 1e-05 s⁻¹	–	< 1e-05 s⁻¹	–	< 1e-05 s⁻¹	–	–
A15G A53U	0.0369 ± 0.0054 s⁻¹	2500 ± 470 µM	0.000575 ± 0.00011 s⁻¹	0.0027 ± 0.00073 s⁻¹	0.00647 ± 0.002 s⁻¹	0.0176 ± 0.0065 s⁻¹	0.0306 ± 0.0073 s⁻¹
G66C	0.000832 ± 7.4e-05 s⁻¹	1470 ± 210 µM	2.55e-05 ± 1.8e-06 s⁻¹	8.08e-05 ± 2.4e-06 s⁻¹	0.000244 ± 6.2e-06 s⁻¹	0.000709 ± 3.8e-05 s⁻¹	0.000712 ± 1.8e-05 s⁻¹
U45A A48G	0.000299 ± 7.2e-05 s⁻¹	–	–	–	8.14e-05 ± 1.3e-05 s⁻¹	0.00033 ± 4.4e-05 s⁻¹	0.00024 ± 2.6e-05 s⁻¹
G37U U69G	4.56e-05 ± 1.6e-05 s⁻¹	–	–	3.74e-05 ± 8.6e-06 s⁻¹	6.88e-05 ± 1.5e-05 s⁻¹	–	–

Variant	kcat [1]	KM [2]	self-cleavage kobs at 40 uM GlcN6P [3]	self-cleavage kobs at 160 uM GlcN6P [4]	self-cleavage kobs at 640 uM GlcN6P [5]	self-cleavage kobs at 2500 uM GlcN6P [6]	self-cleavage kobs at 10000 uM GlcN6P [7]
A42U U56G	0.000177 ± 1.9e-05 s⁻¹	3910 ± 850 µM	–	–	2.06e-05 ± 8.1e-06 s⁻¹	7.54e-05 ± 1.2e-05 s⁻¹	0.000125 ± 1.7e-05 s⁻¹
G44U U55G	0.000311 ± 3.4e-05 s⁻¹	1860 ± 400 µM	–	–	7.46e-05 ± 1.3e-05 s⁻¹	0.000204 ± 3.6e-05 s⁻¹	0.00025 ± 4.1e-05 s⁻¹
A15U G29U	0.00358 ± 0.0016 s⁻¹	–	0.000116 ± 1.1e-05 s⁻¹	0.000217 ± 7.1e-05 s⁻¹	–	0.0014 ± 0.00028 s⁻¹	0.00431 ± 0.00044 s⁻¹
G44C A53U	7.99e-05 ± 9.3e-07 s⁻¹	1170 ± 57 µM	–	–	–	5.52e-05 ± 1.4e-05 s⁻¹	7.13e-05 ± 1.1e-05 s⁻¹
A15U U57A	4.21e-05 ± 3.2e-07 s⁻¹	2340 ± 76 µM	–	–	–	–	3.41e-05 ± 5.8e-06 s⁻¹
C34G C50G G62A	2.47e-05 ± 3.6e-06 s⁻¹	–	–	–	–	–	–
U30C C50G	0.000183 ± 3.9e-05 s⁻¹	–	0.000126 ± 3.1e-05 s⁻¹	0.000338 ± 0.00011 s⁻¹	0.000179 ± 4.8e-05 s⁻¹	0.000149 ± 3.8e-05 s⁻¹	0.000318 ± 9.9e-05 s⁻¹
C58G G62U C70U	2.66e-05 ± 1.1e-05 s⁻¹	–	–	–	4.86e-05 ± 2.1e-05 s⁻¹	–	–
G29C A33G	1.09e-05 ± 3.1e-06 s⁻¹	–	–	–	–	–	–
G29A G44A	1.73e-05 ± 3.5e-06 s⁻¹	–	< 1e-05 s⁻¹	–	–	–	–
C16U A39G	0.0255 ± 0.0088 s⁻¹	866 ± 400 µM	0.00133 ± 0.00019 s⁻¹	0.00365 ± 0.00075 s⁻¹	0.00828 ± 0.0019 s⁻¹	0.0177 ± 0.0063 s⁻¹	0.0356 ± 0.0085 s⁻¹
C11G A15U U54A C70A	3.62e-05 ± 1.5e-05 s⁻¹	–	–	–	6.28e-05 ± 2.7e-05 s⁻¹	–	–
A15C U47C	0.000622 ± 8.7e-05 s⁻¹	3550 ± 830 µM	–	–	0.000108 ± 2e-05 s⁻¹	0.000244 ± 4.5e-05 s⁻¹	0.000465 ± 7.5e-05 s⁻¹
G7A C50A	< 1e-05 s⁻¹	–	< 1e-05 s⁻¹	< 1e-05 s⁻¹	–	< 1e-05 s⁻¹	–
A52U C67G C70G	2.5e-05 ± 7.5e-06 s⁻¹	–	–	–	–	–	–
C11A U69A	4.95e-05 ± 1.6e-05 s⁻¹	–	–	–	6.89e-05 ± 2.4e-05 s⁻¹	7.69e-05 ± 2.5e-05 s⁻¹	–
A12U A42U	0.000531 ± 7.4e-05 s⁻¹	1240 ± 330 µM	–	5.09e-05 ± 7.4e-06 s⁻¹	0.000198 ± 1.9e-05 s⁻¹	0.000402 ± 3.2e-05 s⁻¹	0.000411 ± 4.6e-05 s⁻¹
G13C C58A	0.000354 ± 6.9e-05 s⁻¹	7610 ± 2700 µM	–	–	4.16e-05 ± 9.2e-06 s⁻¹	8e-05 ± 9.7e-06 s⁻¹	0.000203 ± 1.3e-05 s⁻¹

From the supplement of paper PMC7125110
